IntAct's records for PubMed 26068854

B1: Kinetochore protein NDC80 homolog (Homo sapiens), O14777 (parent)
chain: MKRSSVSSGGAGRLSMQELRSQDVNKQGLYTPQTKEKPTFGKLSINKPTSERKVSLFGKRTSGHGSRNSQLGIFSSSEKIKDPRPLNDKAFIQQCIRQLCEFLTENGYAHNVSMKSLQAPSVKDFLKIFTFLYGFLCPSYELPDTKFEEEVPRIFKDLGYPFALSKSSMYTVGAPHTWPHIVAALVWLIDCIKIHTAMKESSPLFDDGQPWGEETEDGIMHNKLFLDYTIKCYESFMSGADSFDEMNAELQSKLKDLFNVDAFKLESLEAKNRALNEQIARLEQEREKEPNRLESLRKLKASLQGDVQKYQAYMSNLESHSAILDQKLNGLNEEIARVELECETIKQENTRLQNIIDNQKYSVADIERINHERNELQQTINKLTKDLEAEQQKLWNEELKYARGKEAIETQLAEYHKLARKLKLIPKGAENSKGYDFEIKFNPEAGANCLVKYRAQVYVPLKELLNETEEEINKALNKKMGLEDTLEQLNAMITESKRSVRTLKEEVQKLDDLYQQKIKEAEEEDEKCASELESLEKHKHLLESTVNQGLSEAMNELDAVQREYQLVVQTTTEERRKVGNNLQRLLEMVATHVGSVEKHLEEQIAKVDREYEECMSEDLSENIKEIRDKYEKKATLIKSSEE
partner: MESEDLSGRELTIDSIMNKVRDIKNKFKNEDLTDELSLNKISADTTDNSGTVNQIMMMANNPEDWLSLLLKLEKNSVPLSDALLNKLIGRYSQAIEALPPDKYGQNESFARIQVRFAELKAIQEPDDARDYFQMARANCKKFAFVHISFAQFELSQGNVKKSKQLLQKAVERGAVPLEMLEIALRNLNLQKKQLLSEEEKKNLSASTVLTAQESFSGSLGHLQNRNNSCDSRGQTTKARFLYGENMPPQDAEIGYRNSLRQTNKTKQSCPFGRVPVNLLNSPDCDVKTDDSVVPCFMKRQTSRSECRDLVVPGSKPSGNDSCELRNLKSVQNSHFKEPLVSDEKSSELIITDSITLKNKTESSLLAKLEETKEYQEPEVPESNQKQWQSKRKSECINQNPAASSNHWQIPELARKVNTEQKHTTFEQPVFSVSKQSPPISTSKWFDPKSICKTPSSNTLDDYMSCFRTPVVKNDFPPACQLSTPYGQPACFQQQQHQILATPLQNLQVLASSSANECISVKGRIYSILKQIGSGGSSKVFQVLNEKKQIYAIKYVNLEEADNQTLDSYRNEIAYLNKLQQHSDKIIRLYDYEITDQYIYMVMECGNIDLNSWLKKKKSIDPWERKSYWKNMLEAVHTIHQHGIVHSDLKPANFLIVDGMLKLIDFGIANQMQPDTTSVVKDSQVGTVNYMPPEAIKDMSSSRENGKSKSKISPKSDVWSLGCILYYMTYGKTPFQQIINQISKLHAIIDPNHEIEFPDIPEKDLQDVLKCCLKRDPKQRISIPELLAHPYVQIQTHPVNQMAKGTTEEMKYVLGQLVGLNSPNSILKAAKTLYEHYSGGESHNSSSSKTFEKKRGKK
B2: Kinetochore protein Nuf2 (Homo sapiens), Q9BZD4 (parent)
chain: METLSFPRYNVAEIVIHIRNKILTGADGKNLTKNDLYPNPKPEVLHMIYMRALQIVYGIRLEHFYMMPVNSEVMYPHLMEGFLPFSNLVTHLDSFLPICRVNDFETADILCPKAKRTSRFLSGIINFIHFREACRETYMEFLWQYKSSADKMQQLNAAHQEALMKLERLDSVPVEEQEEFKQLSDGIQELQQSLNQDFHQKTIVLQEGNSQKKSNISEKTKRLNELKLSVVSLKEIQESLKTKIVDSPEKLKNYKEKMKDTVQKLKNARQEVVEKYEIYGDSVDCLPSCQLEVQLYQKKIQDLSDNREKLASILKESLNLEDQIESDESELKKLKTEENSFKRLMIVKKEKLATAQFKINKKHEDVKQYKRTVIEDCNKVQEKRGAVYERVTTINQEIQKIKLGIQQLKDAAEREKLKSQEIFLNLKTALEKYHDGIEKAAEDSYAKIDEKTAELKRKMFKMST
partner: B1 partner

Variants of: B1
Conditions: with TTK

Row | Variant | effect of a mutation on the interaction
1 | K89E | decreasing interaction strength
2 | K166E | decreasing interaction strength
3 | K89E;K166E | decreasing interaction strength

Variants of: B2
Conditions: with TTK

Row | Variant | effect of a mutation on the interaction
4 | METLSFPRYNVAEIVIHIRNKILTGADGKNLTKNDLYPNPKPEVLHMIYMRALQIVYGIRLEHFYMMPVNSEVMYPHLMEGFLPFSNLVTHLDSFLPICRVNDFETADILCPKAKRTSRFLSGIINFIAFREACRETYMEFLWQYKSSADKMQQLNAAHQEALMKLERLDSVPVEEQEEFKQLSDGIQELQQSLNQDFHQKTIVLQEGNSQKKSNISEKTKRLNELKLSVVSLKEIQESLKTKIVDSPEKLKNYKEKMKDTVQKLKNARQEVVEKYEIYGDSVDCLPSCQLEVQLYQKKIQDLSDNREKLASILKESLNLEDQIESDESELKKLKTEENSFKRLMIVKKEKLATAQFKINKKHEDVKQYKRTVIEDCNKVQEKRGAVYERVTTINQEIQKIKLGIQQLKDAAEREKLKSQEIFLNLKTALEKYHDGIEKAAEDSYAKIDEKTAELKRKMFKMST [H129A] | decreasing interaction strength
5 | METLSFPRYNVAEIVIHIRNKILTGADGKNLTKNDLYPNPKPEVLHMIYMRALQIVYGIRLEHFYMMPVNSEVMYPHLMEGFLPFSNLVTHLDSFLPICRVNDFETADILCPKAERTSRFLSGIINFIHFREACRETYMEFLWQYKSSADKMQQLNAAHQEALMKLERLDSVPVEEQEEFKQLSDGIQELQQSLNQDFHQKTIVLQEGNSQKKSNISEKTKRLNELKLSVVSLKEIQESLKTKIVDSPEKLKNYKEKMKDTVQKLKNARQEVVEKYEIYGDSVDCLPSCQLEVQLYQKKIQDLSDNREKLASILKESLNLEDQIESDESELKKLKTEENSFKRLMIVKKEKLATAQFKINKKHEDVKQYKRTVIEDCNKVQEKRGAVYERVTTINQEIQKIKLGIQQLKDAAEREKLKSQEIFLNLKTALEKYHDGIEKAAEDSYAKIDEKTAELKRKMFKMST [K115E] | decreasing interaction strength
6 | METLSFPRYNVAEIVIHIRNKILTGADGKNLTKNDLYPNPKPEVLHMIYMRALQIVYGIRLEHFYMMPVNSEVMYPHLMEGFLPFSNLVTHLDSFLPICRVNDFETADILCPKAKETSRFLSGIINFIHFREACRETYMEFLWQYKSSADKMQQLNAAHQEALMKLERLDSVPVEEQEEFKQLSDGIQELQQSLNQDFHQKTIVLQEGNSQKKSNISEKTKRLNELKLSVVSLKEIQESLKTKIVDSPEKLKNYKEKMKDTVQKLKNARQEVVEKYEIYGDSVDCLPSCQLEVQLYQKKIQDLSDNREKLASILKESLNLEDQIESDESELKKLKTEENSFKRLMIVKKEKLATAQFKINKKHEDVKQYKRTVIEDCNKVQEKRGAVYERVTTINQEIQKIKLGIQQLKDAAEREKLKSQEIFLNLKTALEKYHDGIEKAAEDSYAKIDEKTAELKRKMFKMST [R116E] | decreasing interaction strength
7 | METLSAARYNVAEIVIHIRNKILTGADGKNLTKNDLYPNPKPEVLHMIYMRALQIVYGIRLEHFYMMPVNSEVMYPHLMEGFLPFSNLVTHLDSFLPICRVNDFETADILCPKAKRTSRFLSGIINFIHFREACRETYMEFLWQYKSSADKMQQLNAAHQEALMKLERLDSVPVEEQEEFKQLSDGIQELQQSLNQDFHQKTIVLQEGNSQKKSNISEKTKRLNELKLSVVSLKEIQESLKTKIVDSPEKLKNYKEKMKDTVQKLKNARQEVVEKYEIYGDSVDCLPSCQLEVQLYQKKIQDLSDNREKLASILKESLNLEDQIESDESELKKLKTEENSFKRLMIVKKEKLATAQFKINKKHEDVKQYKRTVIEDCNKVQEKRGAVYERVTTINQEIQKIKLGIQQLKDAAEREKLKSQEIFLNLKTALEKYHDGIEKAAEDSYAKIDEKTAELKRKMFKMST [F6A;P7A] | disrupting interaction strength
8 | METLSFPRYNVAEIVIHIRNKILTGADGKNLTKNDLYPNPKPEVLHMIYMRALQIVYGIRLEHFYMMPVNSEVMYPHLMEGFLPFSNLVTHLDSFLPICRVNDFETADILCPKAKRTSRFLSGIIAFIHFREACRETYMEFLWQYKSSADKMQQLNAAHQEALMKLERLDSVPVEEQEEFKQLSDGIQELQQSLNQDFHQKTIVLQEGNSQKKSNISEKTKRLNELKLSVVSLKEIQESLKTKIVDSPEKLKNYKEKMKDTVQKLKNARQEVVEKYEIYGDSVDCLPSCQLEVQLYQKKIQDLSDNREKLASILKESLNLEDQIESDESELKKLKTEENSFKRLMIVKKEKLATAQFKINKKHEDVKQYKRTVIEDCNKVQEKRGAVYERVTTINQEIQKIKLGIQQLKDAAEREKLKSQEIFLNLKTALEKYHDGIEKAAEDSYAKIDEKTAELKRKMFKMST [N126A] | disrupting interaction strength
9 | METLSFPRYNVAEIVIHIRNKILTGADGKNLTKNDLYPNPKPEVLHMIYMRALQIVYGIRLEHFYMMPVNSEVMYPHLMEGFLPFSNLVTHLDSFLPICRVNKFETADILCPKAKRTSRFLSGIINFIHFREACRETYMEFLWQYKSSADKMQQLNAAHQEALMKLERLDSVPVEEQEEFKQLSDGIQELQQSLNQDFHQKTIVLQEGNSQKKSNISEKTKRLNELKLSVVSLKEIQESLKTKIVDSPEKLKNYKEKMKDTVQKLKNARQEVVEKYEIYGDSVDCLPSCQLEVQLYQKKIQDLSDNREKLASILKESLNLEDQIESDESELKKLKTEENSFKRLMIVKKEKLATAQFKINKKHEDVKQYKRTVIEDCNKVQEKRGAVYERVTTINQEIQKIKLGIQQLKDAAEREKLKSQEIFLNLKTALEKYHDGIEKAAEDSYAKIDEKTAELKRKMFKMST [D103K] | decreasing interaction strength
